This assay concerns the target EEEV virus-like particles (VLPs: C, E2, and E1) (Eastern equine encephalitis virus) (UniProt Q4QXJ7). The assay can be described thus: ELISA. On the technique in general: ELISA stands for enzyme-linked immunosorbent assay.

On to “LA3-LA3-LA3-LA3-LA3-Fc [LA3(5)-Fc] (from UniProt P01130) (Fc fusion)”, for which the fold increase in binding avidity is 100 fold.
